The Immune Epitope Database (IEDB)

Legend:
HLA-B*15:03 = test: IEDB peptide-MHC binding, purified MHC/competitive/radioactivity; filed as Kd, often an IC50 or EC50 that approximates it; ≥ and ≤ were set here for values at or beyond the usual limits of such assays; settings: source organism: Vaccinia virus WR
HLA-A*32:01 = test: as above; settings: source organism: Vaccinia virus WR
HLA-A*02:01 [1] = test: IEDB peptide-MHC binding, purified MHC/competitive/fluorescence; filed as Kd, often an IC50 or EC50 that approximates it; ≥ and ≤ were set here for values at or beyond the usual limits of such assays; settings: source organism: Vaccinia virus Tian Tan
HLA-A*26:02 = test: as above; settings: source organism: Vaccinia virus Tian Tan
HLA-A*11:01 = test: as above; settings: source organism: Vaccinia virus Tian Tan
HLA-B*39:01 = test: as above; settings: source organism: Vaccinia virus Tian Tan
HLA-B*15:09 = test: as above; settings: source organism: Vaccinia virus Tian Tan
HLA-A*68:02 = test: as above; settings: source organism: Vaccinia virus Tian Tan
HLA-B*35:01 = test: as above; settings: source organism: Vaccinia virus Tian Tan
HLA-B*15:17 = test: as above; settings: source organism: Vaccinia virus Tian Tan
HLA-A*69:01 = test: IEDB peptide-MHC binding, purified MHC/direct/fluorescence; filed as Kd, often an IC50 or EC50 that approximates it; ≥ and ≤ were set here for values at or beyond the usual limits of such assays
HLA-B*27:05 = test: as above; settings: source organism: Camelpox virus CMS
HLA-B*57:01 = test: as above; settings: source organism: Camelpox virus CMS
HLA-A*31:01 = test: as above; settings: source organism: Camelpox virus CMS
HLA-B*48:01 = test: as above; settings: source organism: Camelpox virus CMS
HLA-B*07:02 = test: as above; settings: source organism: Camelpox virus CMS
HLA-A*26:01 = test: as above; settings: source organism: Variola virus
HLA-B*15:01 = test: as above; settings: source organism: Camelpox virus CMS
HLA-B*58:01 = test: as above; settings: source organism: Camelpox virus CMS
HLA-A*01:01 = test: as above; settings: source organism: Camelpox virus CMS
HLA-B*46:01 = test: as above; settings: source organism: Camelpox virus CMS
HLA-A*32:07 = test: IEDB peptide-MHC binding, purified MHC/competitive/fluorescence; filed as Kd, often an IC50 or EC50 that approximates it; ≥ and ≤ were set here for values at or beyond the usual limits of such assays; settings: source organism: Kurkino virus
HLA-B*45:06 = test: as above; settings: source organism: Kurkino virus
HLA-A*32:15 = test: as above; settings: source organism: Kurkino virus
HLA-A*03:19 = test: as above; settings: source organism: Kurkino virus
HLA-B*15:42 = test: as above; settings: source organism: Kurkino virus
HLA-B*40:13 = test: as above; settings: source organism: Kurkino virus
HLA-B*83:01 = test: as above; settings: source organism: Kurkino virus
HLA-B*27:20 = test: as above; settings: source organism: Kurkino virus
HLA-A*02:01 [2] = test: IEDB peptide-MHC binding, purified MHC/direct/fluorescence; filed as Kd, often an IC50 or EC50 that approximates it; ≥ and ≤ were set here for values at or beyond the usual limits of such assays; settings: source organism: Orthohantavirus dobravaense
HLA-A*02:11 = test: as above; settings: source organism: Kurkino virus
HLA-A*02:19 = test: as above; settings: source organism: Kurkino virus
HLA-A*02:12 = test: as above; settings: source organism: Kurkino virus

WQFAIHYSF
Kd (HLA-B*15:03): 4.47 nM | Kd (HLA-A*32:01): 2.75 nM | Kd (HLA-A*02:01 [1]): ≥ 20000 nM | Kd (HLA-A*26:02): 833 nM | Kd (HLA-A*11:01): ≥ 20000 nM | Kd (HLA-B*39:01): 604 nM | Kd (HLA-B*15:09): ≥ 20000 nM | Kd (HLA-A*68:02): ≥ 20000 nM | Kd (HLA-B*35:01): 922 nM | Kd (HLA-B*15:17): 4670 nM | Kd (HLA-A*69:01; source organism: Camelpox virus CMS): ≥ 20000 nM | Kd (HLA-B*27:05): 277 nM | Kd (HLA-B*57:01): ≥ 20000 nM | Kd (HLA-A*31:01): ≥ 20000 nM | Kd (HLA-B*48:01): 160 nM | Kd (HLA-B*07:02): ≥ 20000 nM | Kd (HLA-A*26:01): ≥ 20000 nM | Kd (HLA-B*15:01): 130 nM | Kd (HLA-B*58:01): ≥ 20000 nM | Kd (HLA-A*01:01): ≥ 20000 nM | Kd (HLA-B*46:01): ≥ 20000 nM

SLYSGFPSL
Kd (HLA-A*32:07): 2.5 nM | Kd (HLA-B*45:06): ≥ 5000 nM | Kd (HLA-A*32:15): 30.5 nM | Kd (HLA-A*03:19): 26.1 nM | Kd (HLA-B*15:42): ≥ 5000 nM | Kd (HLA-B*40:13): 160 nM | Kd (HLA-B*83:01): ≥ 5000 nM | Kd (HLA-B*27:20): 26.5 nM | Kd (HLA-A*02:01 [2]): ≤ 1 nM | Kd (HLA-A*69:01; source organism: Orthohantavirus dobravaense): ≤ 1 nM | Kd (HLA-A*02:11): ≤ 1 nM | Kd (HLA-A*02:19): 42 nM | Kd (HLA-A*02:12): ≤ 1 nM
